The target of experiment [1] is A. fulgidus humanized ferritin (chimeric ferritin: Archaeoglobus fulgidus ferritin with a grafted surface loop of human H ferritin) (Archaeoglobus fulgidus). The experiment is described as follows: SEC; HP-SEC of the HumFt-PAMAM nanoparticle after up to 24 h at 37 °C in 20 mM HEPES with 50 mM MgCl2, in PBS, or in RPMI 1640 with 10% FCS. For orientation: In gel filtration, larger molecules generally elute earlier.

For experiment [2] the target is unchanged. The experiment is described as follows: negative staining electron microscopy; TEM, HumFt 0.02 mg/mL with 50 mM Mg2+ and/or G4 PAMAM; 2% uranyl acetate or 4% ammonium molybdate.
Experiment [3] shares this target. In words: SEC; HP-SEC of HumFt with divalent cations only (no PAMAM); dimers to 24-mer.
For experiment [4] the target is unchanged. In words: SEC; HP-SEC of the HumFt-G4 PAMAM/FITC nanoparticle; mobile phase 20 mM HEPES pH 7.4 with 50 mM MgCl2; UV 220 nm and fluorescence; dimers to 24-mer.
The target is the same in experiment [5]. The experiment is described as follows: SEC; HP-SEC, no MgCl2; open HumFt 5 mg/mL (10 uM 24-mer) added to G3, G4 or G5 PAMAM at HumFt:PAMAM 1:10, 1:20, 1:30; mobile phase 20 mM HEPES pH 7.4; UV 220 nm; dimers to 24-mer.
For experiment [6] the target is unchanged. The experiment is described as follows: negative staining electron microscopy; TEM, HumFt 0.02 mg/mL in HEPES buffer without magnesium ions; 2% uranyl acetate or 4% ammonium molybdate.

Bounds are passed on as bounds.

“A. fulgidus humanized ferritin (chimeric ferritin: Archaeoglobus fulgidus ferritin with a grafted surface loop of human H ferritin)” had a percent 24-mer in experiment [1] of more than 95%. Also, the stoichiometry N – broadly, a count of units in the complex or per binding partner – in experiment [2] was 24; in experiment [4], 24; in experiment [5] it was 24; in experiment [6], 2. Also, the percent dimeric form in experiment [3] is 10 to 15%; in experiment [4] it was less than 2%.

The record behind these values is article PMC8190868.
